Test results from the supplement of paper PMC9170038.

Test system: MS2 coat protein
Assay: apparent KD of MS2 coat protein; designed switch direction (-1 OFF switch, 1 ON switch): 1; higher = weaker reporter binding
How it was run: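 Designed RNA switches sharing common flanks were transcribed on Illumina chips by stalled E. coli RNA polymerase. They were titrated with SNAP-549-labelled MS2 coat protein, from 0.7 or 1.5 nM doubling to 3 µM, in Tris-HCl pH 7.5 buffer with KCl, MgCl2, BSA, DTT, tRNA and Tween-20. Titrations ran without input, with 200 uM small-molecule ligand, or with an oligonucleotide input. The apparent KD of each design is the median over its clusters, after curve-fitting of normalised cluster fluorescence.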

[1] = input ligand: microRNA oligo, concentration not stated
[2] = Eterna round: R95, input ligand: FMN 200 uM
[3] = Eterna round: R95, input ligand: microRNA oligo, concentration not stated
[4] = Eterna round: R95, input ligand: none

| Sequence | apparent KD of MS2 coat protein (input ligand: FMN 200 uM) | apparent KD of MS2 coat protein [1] | apparent KD of MS2 coat protein (input ligand: none) | apparent KD of MS2 coat protein [2] | apparent KD of MS2 coat protein [3] | apparent KD of MS2 coat protein [4] |
| --- | --- | --- | --- | --- | --- | --- |
| AUUUUAAAUGCAGGAUAUGAUUAACAUGAGGAUCACCCAUGUGGUGUUGUGAGUAAGGAGAGUGAUCAGAAGGGCAUUUUUUUU [JMF's solution 95] (Eterna round: R96, puzzle: Same State NG 2) | 748 nM | 546 nM | 714 nM | – | – | – |
| CAAACUUAGUAGGAUAGGUACCCAGGAUGACAUGAGGAUCACCCAUGUAAGAGCUUUUUGCUCGUCAUUAACAGUUG [JR_SHM208a_Sub017] (puzzle: Sensor for hsa-mir-208a) | – | – | – | 51.7 nM | 53 nM | 78.3 nM |
| CAAACUUAGUAGGGUAGGUACCCAGGACGACAUGAGGAUCACCCAUGUAAGAGCUUUUUGCUCGUCGUCAACAGUUG [JR_SHM208a_Sub019] (puzzle: Sensor for hsa-mir-208a) | – | – | – | 19.8 nM | 22.5 nM | 19.8 nM |
| CAAGGACGGACACAGGAUAUCCUCACCUACACAUGAGGAUCACCCAUGUCAUAAAAGAUGGUGCAGGAGAAGGGUGCGGCGUCAA [Zarelaesdi] (puzzle: Same State 2) | – | – | – | 7.93 nM | 8.32 nM | 6.36 nM |
| CACAUGAGGAUCACCCAUGUGAGGCGGCAAUAAAACCGCGCACAGGAUAUAGCGCUAAGAAAGCGCUAGAAGGGUGAUUAGAAC [Gerelabies] (Eterna round: R96, puzzle: Same State NG 3) | 712 nM | 20.8 nM | 71.1 nM | – | – | – |
| CAGCGCUGUCGAGAGGAUAUGCGGUGAUGGACAUGAGGAUCACCCAUGUUAGCGAUGGCAUUACGGUAGAAGGCUCUACAGCUGC [Soteed - 4] (puzzle: Same State 2) | – | – | – | – | 26 nM | – |
| CAGUGCUGUUGAGAGGAUAUGCGGUGAUGGACAUGAGGAUCACCCAUGUUAGCGACAGCGUUACGGCAGAAGGCUCUACCCACUG [Soteed Omei mod 48] (puzzle: Same State 2) | – | – | – | – | 39.1 nM | – |
| CAUACGCGGAGAGGAUAUCGCAGGGUAACGGUAAGUGCCCGAUGACAUGAGGAUCACCCAUGUAUCGAGAAGGCUCCUCACCCU [Eternabot solution 22] (Eterna round: R96, puzzle: Same State NG 2) | 10.6 nM | 7.9 nM | 15.1 nM | – | – | – |
| CCCGCGUUUCGCGCCUACAUGAGGAUCACCCAUGUUUGUAGGCAGGAUAUCGUCCGCUCUGCGGGCGAGAAGGGCUGUUGUGGU [salish99_SSNG3_R04_029] (Eterna round: R96, puzzle: Same State NG 3) | – | 72.9 nM | – | – | – | – |
| CCGAUAAUAGGACAGGAUAUGACUGUCGUCACAUGAGGAUCACCCAUGUCCCGGCAAUGCCACCGUUAGAAGGGUCCUAUCUCGA [Maeded] (puzzle: Same State 2) | – | – | – | – | 13.5 nM | – |
| CCGGGUAAUGGAGGAUAUGGAGCCUUAUUGGCUCCAGAAGGCUAACAUGAGGAUCACCCAUGUAGUCCGGCGGUCAAUAGACCG [Eli NG1ss - 66] (Eterna round: R96, puzzle: Same State NG 1) | 10.5 nM | 13.2 nM | 19.2 nM | – | – | – |
| CCGUUGAUGGGACAGGAUAUGACUGUCGUCACAUGAGGAUCACCCAUGUCCCGGCAAUGCCACCGUUAGAAGGGUCCCGUCUCGG [Edraedbibe] (puzzle: Same State 2) | – | – | – | – | 12 nM | – |
| CGACACACGGCAGGAUAUGCUUAGCAAAGCUAAGCAGAAGGGCCUCAUGUCGUGGAAACGUGACAUGAGGAUCACCCAUGUUGC [Omei SS(NG)1 Cv1] (Eterna round: R96, puzzle: Same State NG 1) | 21 nM | 5.59 nM | 36.3 nM | – | – | – |
| CGCCAGAGAGCAGGAUAUGGGCCACGGCCUAAGGGCUGUGGACUCACAUGAGGAUCACCCAUGUCCCAGAAGGGCUCCUGGCUA [Usarbebi] (Eterna round: R96, puzzle: Same State NG 2) | 18.1 nM | 128 nM | 174 nM | – | – | – |
| CGCUGCGUUUCAUAGGAUAUGUGGUUUUGAACAUGAGGAUCACCCAUGUAGACGUCAAUGGCUCCACAGAAGGGUGACACUAGUG [Aredis] (puzzle: Same State 2) | – | – | – | 261 nM | 571 nM | 908 nM |
| CGGAAACGUCAAGGAUAUGCUACCGUUUCGGUAGCAGAAGGUGAUCACAUGAGGAUCACCCAUGUAUGCAUGCGUGAGCGUGCU [JL SSNG1 3.56] (Eterna round: R96, puzzle: Same State NG 1) | 206 nM | 187 nM | 177 nM | – | – | – |
| CGGCGCUGUCGAGAGGAUAUGCGGUGAUGGACAUGAGGAUCACCCAUGUUAGCGAUAGCAUCACGGUAGAAGGCUCUACGGCCUG [Soteed Omei mod 22] (puzzle: Same State 2) | – | – | – | – | 52.3 nM | – |
| CGGGUACAUGAGGAUCACCCAUGUGGAAGAGAUGCAGGAUAUGUGGGAAAAGGGAAUGUAACAGAAGGGCAAGGAG [JR_SS!_Sub016] (puzzle: Same State 1) | – | – | – | 53.4 nM | 64.1 nM | 144 nM |
| CGGGUACAUGAGGAUCACCCAUGUGGGAGGGAUGCAGGAUAUGUGGGAGGAGGGUAUGAAACAGAAGGGCAAGGAG [JR_SS!_Sub012] (puzzle: Same State 1) | – | – | – | 46.7 nM | 48.9 nM | 65.5 nM |
| CGGGUGAUCGUAGGAUAUCUAGGAUAUGAACGAGGAUCACCCGAGCAGCAUCAGCGCAUCAGAGGAGAGAAGGACGAUCAUGCG [pwkr ssNG2 2F5 2FMN.7] (Eterna round: R96, puzzle: Same State NG 2) | 326 nM | 12.9 nM | 59.1 nM | – | – | – |
| CGUAGGUAGCUGGAGGAUAUUCGAGUGGUAACAUGAGGAUCACCCAUGUGGAGAGAGGAACAUGAGGAGAAGGCUAGCUGCCUGC [JL-ss2-3.19 JL mod] (puzzle: Same State 2) | – | – | – | 8.36 nM | 21.7 nM | 16.7 nM |
| CGUCCAGCCUGAGCUGGACAAAAGCAUGUACAUGAGGAUCACCCAUGUUCAUGUACAAGCUUUUUGCUCGUCUUACC [salish99_208a_r3_094x] (Eterna round: R96, puzzle: Sensor for hsa-mir-208a) | 760 nM | 14.3 nM | 752 nM | – | – | – |
| CGUCCAGCCUGAGCUGGACAAAAGCAUGUACAUGAGGAUCACCCAUGUUCAUGUACAAGCUUUUUGCUCGUCUUACC [salish99_208a_r3_094x] (puzzle: Sensor for hsa-mir-208a) | – | – | – | 638 nM | 15.9 nM | 1010 nM |
| CGUCCGGCCUGUGCUGGCCGGUGGCUUGUACAUGAGGAUCACCCAUGUUCUUGUGCUGGCGUUUUGCUCGUCUUGUG [salish99_mir208a_r3_020] (puzzle: Sensor for hsa-mir-208a) | – | – | – | 28.2 nM | 20.7 nM | 32.5 nM |
| CUAAAACAUGAGGAUCACCCAUGUCAACAAAGUCGAGGAUAUGGGCAAAUAAAAUAAGAACCAGAAGGCGAAUAAA [salish99_SS1_r3_015] (puzzle: Same State 1) | – | – | – | 42.8 nM | 518 nM | 518 nM |
